Targets include Immunoglobulin M; α2-Macroglobulin; Immunoglobulin G; Immunoglobulin A.
Experiment in all cases: ELISA; coated glycoprotein, biotin-labeled lectin 1 µg/mL; grade of A450 reaction value (Low 0.1 to 0.2, Moderate 0.2 to 0.5, High 0.5 or more)
Assay [1] has as its target α-Fetoprotein L3 (Homo sapiens (Human)) (UniProt P02771).
For assay [2], the target named is Prostate-specific antigen (Homo sapiens (Human)) (UniProt P07288).
Assay [3] has as its target α-Fetoprotein (Homo sapiens (Human)) (UniProt P02771).

α-Fetoprotein L3 (Homo sapiens (Human)), sequence (P02771 19-609 limits assumed, form in doubt): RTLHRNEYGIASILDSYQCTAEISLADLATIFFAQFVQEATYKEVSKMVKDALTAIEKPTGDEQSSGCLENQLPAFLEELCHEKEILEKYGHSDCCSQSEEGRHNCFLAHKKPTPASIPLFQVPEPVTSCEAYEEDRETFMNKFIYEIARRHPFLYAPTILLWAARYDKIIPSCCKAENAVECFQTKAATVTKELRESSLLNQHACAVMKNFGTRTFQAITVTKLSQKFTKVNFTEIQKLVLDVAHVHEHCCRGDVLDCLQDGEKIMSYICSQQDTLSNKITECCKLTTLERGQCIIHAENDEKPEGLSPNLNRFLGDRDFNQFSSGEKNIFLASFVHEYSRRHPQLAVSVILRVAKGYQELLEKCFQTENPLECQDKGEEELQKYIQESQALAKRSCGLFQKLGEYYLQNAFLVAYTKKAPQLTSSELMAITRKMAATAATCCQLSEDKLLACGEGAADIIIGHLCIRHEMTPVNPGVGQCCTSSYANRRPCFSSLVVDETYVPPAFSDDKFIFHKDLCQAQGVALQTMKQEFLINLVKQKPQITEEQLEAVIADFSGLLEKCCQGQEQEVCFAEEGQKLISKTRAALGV
Prostate-specific antigen (Homo sapiens (Human)), sequence (P07288 25-261 limits assumed, form in doubt): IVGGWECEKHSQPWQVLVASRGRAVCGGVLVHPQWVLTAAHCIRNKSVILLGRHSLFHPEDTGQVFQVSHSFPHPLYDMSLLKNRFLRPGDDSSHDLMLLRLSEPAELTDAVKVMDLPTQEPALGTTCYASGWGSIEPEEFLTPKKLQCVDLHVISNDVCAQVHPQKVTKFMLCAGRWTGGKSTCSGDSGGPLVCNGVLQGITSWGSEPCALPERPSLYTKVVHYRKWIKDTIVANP
α2-Macroglobulin, sequence (P01023 24-1474): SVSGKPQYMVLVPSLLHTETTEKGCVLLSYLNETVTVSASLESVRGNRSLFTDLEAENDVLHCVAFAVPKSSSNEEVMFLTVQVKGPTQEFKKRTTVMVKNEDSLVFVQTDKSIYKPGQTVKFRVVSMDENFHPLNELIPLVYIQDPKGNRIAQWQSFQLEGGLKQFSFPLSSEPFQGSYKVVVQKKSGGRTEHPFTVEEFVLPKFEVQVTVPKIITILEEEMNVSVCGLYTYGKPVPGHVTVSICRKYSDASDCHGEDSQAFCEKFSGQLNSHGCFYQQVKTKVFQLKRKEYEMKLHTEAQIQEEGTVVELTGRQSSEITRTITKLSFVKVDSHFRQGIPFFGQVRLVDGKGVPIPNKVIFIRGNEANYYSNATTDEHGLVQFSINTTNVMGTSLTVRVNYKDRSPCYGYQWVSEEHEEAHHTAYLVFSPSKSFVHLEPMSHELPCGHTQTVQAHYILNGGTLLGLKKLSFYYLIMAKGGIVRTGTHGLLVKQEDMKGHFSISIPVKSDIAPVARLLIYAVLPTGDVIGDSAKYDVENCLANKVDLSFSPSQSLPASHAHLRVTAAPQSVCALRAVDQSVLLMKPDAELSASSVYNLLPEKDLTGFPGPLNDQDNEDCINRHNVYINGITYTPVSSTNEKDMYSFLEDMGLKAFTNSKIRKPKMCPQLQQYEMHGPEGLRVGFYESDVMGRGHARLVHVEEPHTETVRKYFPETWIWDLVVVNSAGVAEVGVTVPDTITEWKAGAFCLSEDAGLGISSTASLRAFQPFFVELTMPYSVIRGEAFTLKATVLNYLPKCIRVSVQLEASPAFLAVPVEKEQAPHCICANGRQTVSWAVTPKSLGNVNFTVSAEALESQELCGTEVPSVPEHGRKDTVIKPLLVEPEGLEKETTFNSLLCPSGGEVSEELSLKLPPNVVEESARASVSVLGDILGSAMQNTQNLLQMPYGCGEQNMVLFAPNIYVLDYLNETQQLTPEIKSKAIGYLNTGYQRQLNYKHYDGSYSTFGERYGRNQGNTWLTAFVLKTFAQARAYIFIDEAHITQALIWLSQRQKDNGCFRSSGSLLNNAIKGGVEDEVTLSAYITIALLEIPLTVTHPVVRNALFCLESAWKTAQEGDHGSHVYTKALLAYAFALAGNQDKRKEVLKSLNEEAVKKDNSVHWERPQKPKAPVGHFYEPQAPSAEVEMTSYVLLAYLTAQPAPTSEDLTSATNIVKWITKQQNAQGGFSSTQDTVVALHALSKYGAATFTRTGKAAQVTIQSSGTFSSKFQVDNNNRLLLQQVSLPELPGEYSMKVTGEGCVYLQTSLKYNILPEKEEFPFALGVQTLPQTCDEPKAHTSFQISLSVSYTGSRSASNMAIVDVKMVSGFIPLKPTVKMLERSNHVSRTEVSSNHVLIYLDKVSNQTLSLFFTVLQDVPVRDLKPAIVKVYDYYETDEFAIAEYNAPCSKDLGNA
α-Fetoprotein (Homo sapiens (Human)), sequence (P02771 19-609 limits assumed, form in doubt): as the sequence (P02771 19-609 limits assumed, form in doubt) above

As to “Aleuria aurantia lectin (from UniProt P18891 2-313)”, the reaction value (absorbance at 450 nm minus blank) is more than 0.5 od in assay [1], 0.2 to 0.5 od in assay [2] and 0.2 to 0.5 od in assay [3].
In the case of Pholiota terrestris Overholts lectin, the reaction value (absorbance at 450 nm minus blank) with Immunoglobulin M was 0.1 to 0.2 od; in the assay with α2-Macroglobulin it was 0.2 to 0.5 od; with Immunoglobulin G, 0.1 to 0.2 od; in assay [1] it was more than 0.5 od; in assay [2], more than 0.5 od; with Immunoglobulin A, 0.2 to 0.5 od.
Consider “Lens culinaris lectin (from UniProt P02870 31-210; P02870 218-269)”, for which the reaction value (absorbance at 450 nm minus blank) in assay [1] was more than 0.5 od.
